Assays:
Leu Enkephalin = biological target: T1, Leu Enkephalin (Homo sapiens, UniProt P01210); assay: Color screening assay of bead-bound receptor libraries with Disperse Red-labelled substrate; assay type: binding; details: Table 5, label = AA1-AA5
T1 construct: composed of two pentapeptides Tyr-Gly-Gly-Phe-LeuOH and Tyr-Gly-Gly-Phe-MetOH; purchased Bachem, Inc
Description: (§1) The synthetic receptor library is then assayed to find those members of the library which have the desired interaction with the labeled substrate. In the case where the desired interaction is binding to the substrate, the synthetic receptor library is mixed with a solution of the labeled substrate and those library members that bind to the labeled substrate are selected. This procedure is particularly simple when the synthetic receptor library members are bound to a solid support as shown in Scheme 2. In that case, solid support particles having receptors which bind the labeled substrate accumulate color or fluorescence or radioactivity (depending on the nature of the label used). Depending on the concentration of the labeled substrate used, the assay can be adjusted to detect binding of any desired strength: for example, if the amount of labeled substrate in the presence of the receptor library is adjusted to give a 100 μM concentration of free (unbound) labeled substrate, then assay will only detect template-substrate binding with association constants (k) of (100 μM)^−1 or greater.
(§2) A color assay method was developed for screening receptor library beads. The color dye used is Disperse Red 1 (available from Aldrich Inc.), a neutral diazo dye whose λmax is at 502 nm. Red color in various organic solvents is visible at concentration as low as 100 μM.
(§3) After receptor beads are treated with a substrate which has a color dye attached on it, the bead binding the substrate is stained and can be easily identified in a background of many colorless beads. The stained bead is the removed from the library by a microsyringe, and subjected to decode to identify its structure. The decoding process involves three operations: a) photolysis of the beads, b) silylation of liberated alcohols, c) injection into GC-EC machine. Once identified, the receptor is then resynthesized on large quantities of beads for confirmatory binding studies. […] From this spectrum, the structure of the receptor is identified as C3—OGLY-leu-phe-Ac, C7—OGLY-ala-Lys-Ac.
(§4) Some additional binding studies for Peptidosteroidal receptors with beta-Casomorphinamide and Des-Tyr Leu Enkahphalin, are shown in the following table 5 and are compared to the Leu Enkaphalin and Met Enkaphalin. [drawing 47]

Met Enkephalin = biological target: T2, Met Enkephalin (Homo sapiens, UniProt P01210); assay: as above; assay type: binding; details: Table 5, label = AA1-AA5; for Kd: read-out: KD-MAX; for BOUND: percentage of library beads bound
T2 construct: composed of two pentapeptides Tyr-Gly-Gly-Phe-LeuOH and Tyr-Gly-Gly-Phe-MetOH; purchased Bachem, Inc
Description: as §1, §2, §3, §4

## GLY-ASP-PRO-PRO-LEU (GDPPL; printed: GLY-ASP-PRO-PRO-LEU)
Leu Enkephalin; read-out: KD-MAX
  Kd: 81 µM
Leu Enkephalin; percentage of library beads bound
  BOUND: 0.7%

## GLY-PHE-PRO-PRO-LEU (GFPPL; printed: GLY-PHE-PRO-PRO-LEU)
Met Enkephalin
  Kd: 85 µM
  BOUND: 0.5%

## PRO-THR-LYS-PHE-ALA (PTKFA; printed: PRO-THR-LYS-PHE-ALA)
Met Enkephalin
  Kd: 75 µM
  BOUND: 0.8%
